# Measured values from article PMC5515730 (Nature Structural & Molecular Biology, 2016).
# B1: HCoV-NL63 spike (S) glycoprotein ectodomain fused to a GCN4 trimerization motif (domain or fragment)
# chain: FFTCNSNANLSMLQLGVPDNSSTIVTGLLPTHWFCANQSTSVYSANGFFYIDVGNHRSAFALHTGYYDANQYYIYVTNEIGLNASVTLKICKFSRNTTFDFLSNASSSFDCIVNLLFTEQLGAPLGITISGETVRLHLYNVTRTFYVPAAYKLTKLSVKCYFNYSCVFSVVNATVTVNVTTHNGRVVNYTVCDDCNGYTDNIFSVQQDGRIPNGFPFNNWFLLTNGSTLVDGVSRLYQPLRLTCLWPVPGLKSSTGFVYFNATGSDVNCNGYQHNSVVDVMRYNLNFSANSLDNLKSGVIVFKTLQYDVLFYCSNSSSGVLDTTIPFGPSSQPYYCFINSTINTTHVSTFVGILPPTVREIVVARTGQFYINGFKYFDLGFIEAVNFNVTTASATDFWTVAFATFVDVLVNVSATNIQNLLYCDSPFEKLQCEHLQFGLQDGFYSANFLDDNVLPETYVALPIYYQHTDINFTATASFGGSCYVCKPHQVNISLNGNTSVCVRTSHFSIRYIYNRVKSGSPGDSSWHIYLKSGTCPFSFSKLNNFQKFKTICFSTVEVPGSCNFPLEATWHYTSYTIVGALYVTWSEGNSITGVPYPVSGIREFSNLVLNNCTKYNIYDYVGTGIIRSSNQSLAGGITYVSNSGNLLGFKNVSTGNIFIVTPCNQPDQVAVYQQSIIGAMTAVNESRYGLQNLLQLPNFYYVSNGGNNCTTAVMTYSNFGICADGSLIPVRPRNSSDNGISAIITANLSIPSNWTTSVQVEYLQITSTPIVVDCATYVCNGNPRCKNLLKQYTSACKTIEDALRLSAHLETNDVSSMLTFDSNAFSLANVTSFGDYNLSSVLPQRNIRSSRIAGRSALEDLLFSKVVTSGLGTVDVDYKSCTKGLSIADLACAQYYNGIMVLPGVADAERMAMYTGSLIGGMVLGGLTSAAAIPFSLALQARLNYVALQTDVLQENQKILAASFNKAINNIVASFSSVNDAITQTAEAIHTVTIALNKIQDVVNQQGSALNHLTSQLRHNFQAISNSIQAIYDRLDSIQADQQVDRLITGRLAALNAFVSQVLNKYTEVRGSRRLAQQKINECVKSQSNRYGFCGNGTHIFSIVNSAPDGLLFLHTVLLPTDYKNVKAWSGICVDGIYGYVLRQPNLVLYSDNGVFRVTSRVMFQPRLPVLSDFVQIYNCNVTFVNISRVELHTVIPDYVDVNKTLQEFAQNLPKYVKPNFDLTPFNLTYLNLSSELKQLEAKTASLFQTTVELQGLIDQINSTYVDLKLLNRFENLIKRMKQIEDKIEEIESKQKKIENEIARIKKIKLVPRGSLE
# modifications: N-linked glycans (glycosylation shown at 34 of 39 NXS/T sequons; paucimannosidic or high-mannose)
# Target: the molecule itself
# Assay: cryo-EM structure
protein,measurement,value
B1,stoichiometry N,3
